The text below walks through data of article PMC2581630, “S-Nitrosylation of Surfactant Protein-D Controls Inflammatory Function” (PLoS Biology, 2008).

For data set [1], the target named is SNO-SP-D in BAL from mice overexpressing SP-D, after treatment with S-nitrosocysteine (not stated (in BAL of SP-D overexpressing mice)) (UniProt P50404). Briefly: SEC; BAL from SP-D overexpressing mice with or without SNOC, 0.75 mg total protein in 250 μl; Superdex 200 HR 10/30, 0.3 ml/min, 25 mM HEPES pH 7.25, 150 mM NaCl; fractions analysed by SDS-PAGE and Western blot for SP-D. On the technique in general: Size exclusion chromatography separates by hydrodynamic size, large species first.

Data set [2] concerns the molecule itself. Briefly: non-reducing SDS-PAGE with Western blot; recombinant proteins denatured without thiol reductant, SDS-PAGE, Western blot with SP-D antibody; shows only oligomers that survive SDS (disulfide-linked). On the technique in general: Immunoblotting shows a protein as a band on a membrane.

Turning to “SNO-SP-D in BAL from mice overexpressing SP-D, after treatment with S-nitrosocysteine (from UniProt P50404 20-374) (natural protein)”, the stoichiometry N (commonly the number of molecules, sites or subunits per partner or assembly) in data set [1] stood at 3.

B1: rat recombinant SP-D (surfactant protein D) (natural protein, UniProt P35248 20-374, looked up)
chain: AEMKTLSQRSITNTCTLVLCSPTENGLPGRDGRDGREGPRGEKGDPGLPGPMGLSGLPGPRGPVGPKGENGSAGEPGPKGERGLVGPPGSPGISGPAGKEGPSGKQGNIGPQGKPGPKGEAGPKGEVGAPGMQGSAGAKGPAGPKGERGAPGEQGAPGNAGAAGPAGPAGPQGAPGSRGPPGLKGDRGAPGDRGIKGESGLPDSAALRQQMEALNGKLQRLEAAFSRYKKAALFPDGQSVGDKIFRAANSEEPFEDAKEMCRQAGGQLASPRSATENAAVQQLVTAHSKAAFLSMTDVGTEGKFTYPTGEALVYSNWAPGEPNNNGGAENCVEIFTNGQWNDKACGEQRLVICEF
notes: surfactant protein D (SP-D), rat, recombinant; It has the N-terminal cysteines 15 and 20 and the head domain, so it is probably the whole mature chain; also called rSP-D; RrSP-D; source: recombinant
In the case of B1, the “stoichiometry N” value in data set [2] came out at 3.
